Values of other authors, collected in paper PMC2866048.

Biological target: F-actin (Oryctolagus cuniculus) (UniProt P68135)

Kd: 0.12 µM
Substance: drebrin (from UniProt Q16643)
